Experimental data: article PMC4432619
pKd: −log10 of the molar value.

Legend:
[1] = target: FMNL2N(S171DD) (residues 1–379) (human) (UniProt Q96PY5); assay: ITC; GppNHp-loaded GTPase at 500 μM injected from the syringe into 50 μM FMNL in the cell; 20 mM Tris/HCl pH 8, 150 mM NaCl, 5 mM MgCl2, 1 mM DTE, 298 K; MicroCal iTC200
[2] = target: FMNL1NCC (FMNL1 1–458, GBD-FH3-CC) (human) (UniProt O95466); assay: as above
Target sequence in this assay (O95466 1-458): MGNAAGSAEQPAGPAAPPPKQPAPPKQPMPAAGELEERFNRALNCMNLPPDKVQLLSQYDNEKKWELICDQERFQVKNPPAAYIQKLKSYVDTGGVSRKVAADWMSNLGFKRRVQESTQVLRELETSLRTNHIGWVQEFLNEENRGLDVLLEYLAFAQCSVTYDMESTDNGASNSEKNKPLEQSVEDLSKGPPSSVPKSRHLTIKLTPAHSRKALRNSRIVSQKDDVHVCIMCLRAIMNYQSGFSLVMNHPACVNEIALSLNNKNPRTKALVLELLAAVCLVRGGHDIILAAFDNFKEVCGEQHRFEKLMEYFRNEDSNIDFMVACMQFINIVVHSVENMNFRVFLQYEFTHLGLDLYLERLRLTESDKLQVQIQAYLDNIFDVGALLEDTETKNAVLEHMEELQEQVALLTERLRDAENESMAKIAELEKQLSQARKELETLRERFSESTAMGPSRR

[3] = target: FMNL1N (FMNL1 2–385, GBD–FH3) (human) (UniProt O95466); assay: as above
[4] = target: FMNL2 1–489 (N-terminal FMNL2 construct including the coiled coil domain) (human) (UniProt Q96PY5); assay: SEC; analytical gel filtration, Superdex S200 (10/300 GL), typically 100 μg of each protein, 20 mM Tris/HCl pH 8.0, 150 mM NaCl, 1 mM DTE (2.5 mM MgCl2 with Rho GTPases), 0.5 ml/min, 293 K
[5] = target: FMNL1NCC (FMNL1 1–458, GBD-FH3-CC) (human) (UniProt O95466); assay: as above

FMNL1N (FMNL1 2–385, GBD–FH3) (human), sequence (O95466 2-385): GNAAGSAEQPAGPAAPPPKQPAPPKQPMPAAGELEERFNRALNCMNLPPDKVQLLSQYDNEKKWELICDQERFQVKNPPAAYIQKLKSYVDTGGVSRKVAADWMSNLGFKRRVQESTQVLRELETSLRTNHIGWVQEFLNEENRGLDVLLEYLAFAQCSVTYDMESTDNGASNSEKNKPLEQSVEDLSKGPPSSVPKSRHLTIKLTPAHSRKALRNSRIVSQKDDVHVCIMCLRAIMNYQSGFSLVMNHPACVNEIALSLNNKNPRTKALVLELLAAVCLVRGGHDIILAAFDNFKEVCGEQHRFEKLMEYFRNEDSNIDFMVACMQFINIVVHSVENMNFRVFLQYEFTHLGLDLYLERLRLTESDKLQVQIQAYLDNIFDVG
Cdc42 (1–179), sequence (P60953 1-179): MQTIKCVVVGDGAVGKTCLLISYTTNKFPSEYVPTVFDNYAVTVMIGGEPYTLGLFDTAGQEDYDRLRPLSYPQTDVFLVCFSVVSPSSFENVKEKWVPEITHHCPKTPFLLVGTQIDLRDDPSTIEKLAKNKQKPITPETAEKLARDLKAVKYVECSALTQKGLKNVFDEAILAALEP
FMNL1NCC (FMNL1 1–458, GBD-FH3-CC), sequence (O95466 1-458): as the sequence (O95466 1-458) above

Cdc42 (1–179) (from UniProt P60953 1-179) (domain or fragment)
pKd [1]: 6.10 | dH [1]: -4.06 kcal/mol | stoichiometry N [1]: 1.05 | pKd [2]: 5.59 | dH [2]: -5.48 kcal/mol | stoichiometry N [2]: 0.37 | pKd [3]: 5.21 | dH [3]: -5.08 kcal/mol | stoichiometry N [3]: 0.28

FMNL2 1–489 (N-terminal FMNL2 construct including the coiled coil domain) (from UniProt Q96PY5 1-489) (domain or fragment)
stoichiometry N [4]: 2

FMNL1NCC (FMNL1 1–458, GBD-FH3-CC) (from UniProt O95466 1-458) (domain or fragment)
stoichiometry N [5]: 2
